According to the DeepSol protein solubility set:

test: soluble on expression in E. coli; label from the status in PepcDB or PDB records

Soluble on expression in E. coli, soluble:
SLIDFHFHAPVKEFLDFLGEFGEPAIKYFNAKVEVKGLKETLDYYESFGIKRFVVLPIDSTTFLGRRIPNQVINLDDRIVKFISVDPSKPNADEELKRSIKEFEPVGVKLHPQLQGFHPLDERALKIYEIIDNHGLIVVFHTGTSGIGAGVKSSIRLDYGRPIYFDEIAVRFQNMKIILAHFGWPWTEEAIAIALHKPNVYLDLSGWAPRYIPQVIWSNAKRLSDKLLFGSDFPLIRPERWLEEFKSVNLSQDIKDKILKHNAEKLVKKS
MAFGWHSMHGSIIWFLQIAQLSTAISHDQNATAVHFLISNLFFLVSTGALWFELCAIFCDSSSSTSILSTSLLMLNYFSLKFSATGERHLVATNIAHIEAHTSIVGFMISLFTPLKETIITKYEMLVRT
MKLVGSYTSPFVRKLSILLLEKGITFEFINELPYNADNGVAQFNPLGKVPVLVTEEGECWFDSPIIAEYIELMNVAPAMLPRDPLESLRVRKIEALADGIMDAGLVSVREQARPAAQQSEDELLRQREKINRSLDVLEGYLVDGTLKTDTVNLATIAIACAVGYLNFRRVAPGWCVDRPHLVKLVENLFSRESFARTEPPKA
TDQAAFDTNIVTLTRFVMEEGRKARGTGEMTQLLNSLCTAVKAISTAVRKAGIAHLWGIAGSTNVTGDQVKKLDVLSNDLVINVLKSSFATCVLVSEEDKNAIIVEPEKRGKYVVCFDPLDGSSNIDCLVSIGTIFGIYRKNSTDEPSEKDALQPGRNLVAAGYALYGSATMLVLAMVNGVNCFMLDPAIGEFILVDRDVKIKKKGSIYSINEGYAKEFDPAITEYIQRKKFPPDNSAPYGARYVGSMVADVHRTLVYGGIFMYPANKKSPKGKLRLLYECNPMAYVMEKAGGLATTGKEAVLDIVPTDIHQRAPIILGSPEDVTELLEIYQKHAAK
MGSSHHHHHHSSGLVPRGSHGLVPRGSHMSDDMSMGLPSSAGEHGVLRSMQEVAMSSQEASKMLRTYNIAWWGNNYYDVNELGHISVCPDPDVPEARVDLAQLVKTREAQGQRLPALFCFPQILQHRLRSINAAFKRARESYGYNGDYFLVYPIKVNQHRRVIESLIHSGEPLGLEAGSKAELMAVLAHAGMTRSVIVCNGYKDREYIRLALIGEKMGHKVYLVIEKMSEIAIVLDEAERLNVVPRLGVRARLASQGSGKWQSSGGEKSKFGLAATQVLQLVETLREAGRLDSLQLLHFHLGSQMANIRDIATGVRESARFYVELHKLGVNIQCFDVGGGLGVDYEGTRSQSDCSVNYGLNEYANNIIWAIGDACEENGLPHPTVITESGRAVTAHHTVLVSNIIGVERNEYTVPTAPAEDAPRALQSMWETWQEMHEPGTRRSLREWLHDSQMDLHDIHIGYSSGIFSLQERAWAEQLYLSMCHEVQKQLDPQNRAHRPIIDELQERMADKMYVNFSLFQSMPDAWGIDQLFPVLPLEGLDQVPERRAVLLDITCDSDGAIDHYIDGDGIATTMPMPEYDPENPPMLGFFMVGAYQEILGNMHNLFGDTEAVDVFVFPDGSVEVELSDEGDTVADMLQYVQLDPKTLLTQFRDQVKKTDLDAELQQQFLEEFEAGLYGYTYLEDE
MSLLVLGIESSCDETGVALYDTERGLRAHCLHTQMAMHAEYGGVVPELASRDHIRRLVPLTEGCLAQAGASYGDIDAVAFTQGPGLGGALLAGSSYANALALALDKPVIPVHHLEGHLLSPLLAEEKPDFPFVALLVSGGHTQIMAVRGIGDYALLGESVDDAAGEAFDKTAKLLGLLYPGGAKLSELAESGRFEAFVFPRPMIHSDDLQMSFSGLKTAVLTAVEKVRAENGADDIPEQTRNDICRAFQDAVVDVLAAKVKKALLQTGFRTVVVAGGVGANRKLRETFGNMTVQIPTPKGKPKHPSEKVSVFFPPTAYCTDNGAMIAFAGAMHLGKGREVGAFNVRPRWPLSEIVREGHHHHHH

Soluble on expression in E. coli, not soluble:
MGSDKIHHHHHHMASLTANIQTQEERKRSLPAQLVVSLVIAMSLWSKDSMRDVLKNLIDGLSEAWLKVGKYWRVACKSAITQARQRLGARVMCKLFHQLVKPMATQETLGAFLQELRIVVIDGSCFDVPDSDENARVFGRPGSRPGTKAAFPKVRLVILVEAGTHIIFDALMWPYRIGERVRALRLLRSVTPGMLLMWDRGLHSYAMVQATVTKGCDYLGRIPANIKFIAEKPLEDGSYLSWIYPSGKLRKKASQPILVRIIEYTIEHPDNPTEQLTYRLITSLLNIEKFPAELLAREYHQRWEVENTIDELKIHLLGRKTHVRSQKPREVVQEVYAWLLGHWTVRLLMFQAATSAGVAPLRLSFTGTLRVIRRAVPKFQRLNSQDLPLFLSG
RVAYIQIIEPDNLIKQGDLRSIRVKSIPSARGIISDRNGEPLAVSVPVEAVWADPATIFKENALSQKQNWYALADVLGVDRQGLIDKIKRNEKRRFIYLQRQVSPAMANYIRELKLPGIGLKSESRRYYPAGEVSAHLVGVTGIDGHGLEGVERSYDEWLTGEEGKKTIRKDRYGRVVENIAWQDKQEGKSLQLTIDQRLQAIAYRAIKQAVADHRATSGSVVMLDVKTGAVLAMVNAPSYNPNNRTDWQSYKMRNRVITDSMEPGSTIKPFVILAALENGVADKDTIVDTGNGVLRLGGSRVRDVSWVGKASLSMILKKSSNIGVTKLAMQMPVEALLGLYSSVGFGELSGLNLVGEVTGIFPTRTRWSPIERATIA
MNKLLTSKSEIIERKIRYDSTTVEHTCLLLEKQLRSIVLFHEVQYSFTMNTHDSSLTIPKGSYTIAYYWEDRPYNLYIWRDKDGMYVGSYFNVVKNTQITDELVSFEDLIIDILVLPSGEYFILDEDELPESLEEFEDGYVNEALHVLEEIIQKTLPQMIVETERVRLN
GFVEPHVHPLIASIMLPNEIIAPYDWVLPHTVKKGVQDHDSYLKAVTKSVNENANKDEVYFIWGYHQLWHGELNRDILNNISKDKPIAIIHRSFHEIFLNDAAISKLGIKKSDFANNPQVYWEKGHFYEGGWFALVPMMASELLAPKKYLQGLAMMSELVEKNGITTIGEPGFPSSSFDTEYTLLKQEMDTKPPFDIFLIPNGTQLYGMKGSNENALTFMNSLPEKYNTSNIQFLPKQVKLFADGAIYSQLMQMKDGYIDGHKGEWITPLALFQQQLDFYWDRDFKIHTHANGDLGIQEVMGFVSKAQKRTPRKDHRFTLHHMGYFDDTQAQQVADLQIDASVNPYYLWALADKYAEHGLGKERGENLVRMKSLTDRGVHLSFHSDFSMAPMEPLTLAWTAVNRITSQGSKFSQAQRLDMYTAMKAITIGAARVLSQEHKIGSIKKGKTANFTILAENPFKVEPIALKDIDIITTVFRGTLSKPLH
GRSDTYDVLANRIENAVEQHRTEQRFWNALSWYQRLVEQELAGVCIIQDGTFVYVNQKLADIFSYDQSELIDESPALLTAEGDGDRLPESLRAADSDELDTFHSKFEGRQANGETRTIEVSGGSIEYDGEPAWIGVLRD
MGSDKIHHHHHHMDKFLYIAMSGAKQGMNALAVSANNLANANTDGFKADMVQARSMQAFGEGLPTRVFSMMESPGSNFNGGPIKTTGRDLDIAVKGDGWLAVQAADGSEGYTRAGSLKIDSTGMLLNSSNRPVMGASGPIVLPIPVEKIEISANGIISVRPQGATAEVIEEVARIKLVNPGNENLMRGEDGLFRLIAGGNAPNDPGVQVESGAVEGSNVNSVHEMVAMIDIQRQYEMQVKMMKNAEEIDRASTSLMRIS
MQSSTEKELLTNASLTVSSDFASNLEGALPSQPITQANPRAEQTLMTTYMSSTTNQADPKTFEEQFVNLLGTFTPSQAVCNVSNVDCGTYVRGPETWSSCKLGTQAIAPNASYIQIRVQDKHSTMDRMNWKGPIEDTSPLMKSLTANFL
HRRNATSLQLSRCANIADRTGLDALGGRRHSRRCPPPQRGLAAIKPLRQHRRRPVRSHIGGNQFADLPHQVDAFVHGKTDAVMLQPRQHAAKRGLRSIVRHFFIRQYRSLIIKRRAHTPGIRQLYRIAHCLRRPVLCGEPFYGFLFESNPLRLIEAV
MPQQKNFVTMPAQHQNKQPGIESLMNPLPQFEDPNYKGSEKLKGKNVLITGGDSGIGRAVSIAFAKEGANIAIAYLDEEGDANETKQYVEKEGVKCVLLPGDLSDEQHCKDIVQETVRQLGSLNILVNNVAQQYPQQGLEYITAEQLEKTFRINIFSYFHVTKAALSHLKQGDVIINTASIVAYEGNETLIDYSATKGAIVAFTRSLSQSLVQKGIRVNGVAPGPIWTPLIPSSFDEKKVSQFGSNVPMQRPGQPYELAPAYVYLASSDSSYVTGQMIHVNGGVIVNG
MGSDKIHHHHHHMRQESLFNPDKSSSSPLAYRVRPVTLADFKGQEHLLGPGKLLRQLIAEDQLPSLIFWGPPGVGKTTLAEIIAQQTQSHFITFSAVTSGIKEIRQIMDEAEANRDFGEKTIVFIDEIHRFNKAQQDAFLPYVERGSITLIGATTENPSFEINAALLSRCKVLVLKALTPDALEAVLQGALQNPKGFPDLEITMQPDTLRLIAEFANGDARMALNTLEMAVLNGDRDGKHVTITTAGLSQLINTKSLRYDKHGEEHYNIISALHKSMRNSDVDAAIYWLMRMLAGGEDPLYIARRLIRFASEDIGLADRQALPLTVAVFQACQLIGMPECDVNLTEAVTYLALAPKSNALYAAKSAAQADIKATGNLPVPLQIRNAPTKLMKDLGYGSDYQYAHDTAAKLTTMTTMPPELKQHRYYEPTSQGQEKAWQQRLAAIRSGTSNIRKPNRQMMRHKDCNLMRIH
MISLPIDLVLPDLREALVNRNEVILEAPPGAGKTTRVPLALLNESWLGDQKILMLEPRRLAARAAAERLASELGEKVGEIVGYRIRLESKVGPRTKIEVVTEGILARRLQDDPALDGVGVVIFDEYHLRNLHSDLALALCLSGRDLLRDDPPLKLLLMSAT
MGSDKIHHHHHHMRGEKNELLSWINNFVEVNNKAIDNSFEKFKSEPSNQYNLPFKNVSWYTLRKTLADNVEESKKARGCLYAVLDYNESELKELGLILNSNLHSIKKIANKIMQNAGIEFQFRFEAIMRLLLDKKNNLMLLNIPDLKRIKICLENFLSLRTTFRELVKQLLNDYNSNKESIKSENIKLGDYLNKAFSDIVLSMDKNPINLEKEIRNIIVI
MGSDKIHHHHHHLIYDVVIAGGGPVGLFLACELRLAGLPVLVLEQAEDPGSPLKRLPFGLRGLSAPTLEAFYRRGMLNEIAAPQRAKDDSGSSVPNAAHWMQQQRRPGGHFAGIQFYYDNIDTSKWPYRLPGPAGTSMAVEMEHIESVLTARAIALGVEIRRGLSVDGFDQSEEGVTVHAGSEIFRGRWLVGCDGGRSTVRRIGGFDFVGTDPEFTGYSVQVEMADPEKLKPGRHYTPTGMYTYQKPGTIAMVDFDGGAFHRTQPITLDHVQAVLRHISNTDVTVTALQLATTWTDRAYHATTYRKGRVLLAGDAAHIHSPLGGQGLNLGLGDAMNLGWKLAATVRDDAPAGLLDSYTSERHPVGAQVLDWSRAQVAIMRPSRSSRALEAIMRDLIDTRDGATYFAERVWGTALRYDLGSSHTLVGRSAPDFELIDGTRLGELFTKGRGLLLDFDALPSLQALASRWSDRITYVASDVKDRLGVSAVLVRPDGFVAWAGEASPNHDEATQAASQWFGKPEEEGRSPA
